This is an account of results in patent US20100009923A1.

The target of the experiment is … (MimA2) presented by H-2D^b on peptide-pulsed RMA-S cells (mouse) (UniProt P01899). Kind of experiment: cell-based or functional assay.
… (MimA2) presented by H-2D^b on peptide-pulsed RMA-S cells (mouse), sequence (P01899 25-362): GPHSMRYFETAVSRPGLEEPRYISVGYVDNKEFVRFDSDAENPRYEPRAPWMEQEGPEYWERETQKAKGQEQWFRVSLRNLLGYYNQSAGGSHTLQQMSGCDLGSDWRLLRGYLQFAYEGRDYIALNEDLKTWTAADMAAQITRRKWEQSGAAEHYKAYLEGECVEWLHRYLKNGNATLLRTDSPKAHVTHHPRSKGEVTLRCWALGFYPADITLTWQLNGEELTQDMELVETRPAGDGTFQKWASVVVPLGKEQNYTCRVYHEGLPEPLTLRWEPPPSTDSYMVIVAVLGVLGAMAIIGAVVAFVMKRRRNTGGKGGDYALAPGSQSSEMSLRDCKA

Substance “TCR of the β cell-autoreactive CD8+ T cell clone AI4 (Vα8/Vβ2)” yielded a peptide concentration giving half-maximal activity in the AI4 cytotoxicity assay (51Cr release, E:T 40, RMA-S targets) of 10 pM.
